Where a chain is given by its changes, count along the chain named.
Legend:
Settings in all cases: both partners purified
[1] = target: T1, IQGAP1 GRD1-RGCT S1443E (aa 877-1558) (human, UniProt P46940 877-1558, S1443E); assay: fluorescence polarisation; IQGAP1 variant titrated to mGppNHp-bound RHO protein (1 μM); equilibrium Kd (eKd), quadratic fit; 30 mM Tris/HCl pH 7.5, 150 mM NaCl, 5 mM MgCl2, 3 mM DTT, 25 °C
T1 construct: human IQGAP1 aa 877-1558 with the phosphomimetic mutation S1443E (printed as S1143E in the methods, S1443E everywhere else), from the vector pET46 EkLIC; source: E. coli (pLysS BL21(DE3), CodonPlusRIL or BL21(Rosetta)), purified (Ni-NTA, gel filtration)
T1 sequence (looked up): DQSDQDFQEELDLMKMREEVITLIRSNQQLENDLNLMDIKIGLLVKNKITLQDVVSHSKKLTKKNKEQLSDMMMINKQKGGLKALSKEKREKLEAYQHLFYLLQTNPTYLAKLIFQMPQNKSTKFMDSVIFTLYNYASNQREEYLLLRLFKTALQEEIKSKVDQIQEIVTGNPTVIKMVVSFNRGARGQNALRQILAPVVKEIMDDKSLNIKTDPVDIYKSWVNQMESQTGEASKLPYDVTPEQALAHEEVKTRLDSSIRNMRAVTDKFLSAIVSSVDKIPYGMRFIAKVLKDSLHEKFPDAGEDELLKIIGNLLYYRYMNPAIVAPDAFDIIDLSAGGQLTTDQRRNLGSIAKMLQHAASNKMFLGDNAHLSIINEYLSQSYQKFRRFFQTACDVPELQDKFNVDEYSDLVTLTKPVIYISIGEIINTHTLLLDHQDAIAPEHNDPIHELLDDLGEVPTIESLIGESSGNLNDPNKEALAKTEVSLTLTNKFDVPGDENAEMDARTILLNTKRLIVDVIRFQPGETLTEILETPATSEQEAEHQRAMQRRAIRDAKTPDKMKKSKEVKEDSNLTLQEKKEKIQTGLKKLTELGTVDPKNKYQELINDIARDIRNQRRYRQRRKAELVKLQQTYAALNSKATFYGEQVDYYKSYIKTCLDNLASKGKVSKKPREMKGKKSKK

[2] = target: T2, IQGAP1 GRD1-RGCT wild type (aa 877-1558) (human, UniProt P46940 877-1558); assay: as above
T2 construct: human IQGAP1, GRD and RGCT domains, lacks the last 99 amino acids, aa 877-1558; also called GRD1-RGCT^WT; IQGAP1^877-1558
T2 sequence (looked up): T1 sequence (looked up) with E567S

[3] = target: T3, IQGAP1 GRD1-CT (aa 863-1657) (human, UniProt P46940 863-1657); assay: as above
T3 construct: human IQGAP1, GRD, RGCT and CT domains, aa 863-1657; The GST tag was cleaved 'if needed'; also called C-terminal half of IQGAP1; C-terminal 795 amino acids of IQGAP1
T3 sequence (looked up): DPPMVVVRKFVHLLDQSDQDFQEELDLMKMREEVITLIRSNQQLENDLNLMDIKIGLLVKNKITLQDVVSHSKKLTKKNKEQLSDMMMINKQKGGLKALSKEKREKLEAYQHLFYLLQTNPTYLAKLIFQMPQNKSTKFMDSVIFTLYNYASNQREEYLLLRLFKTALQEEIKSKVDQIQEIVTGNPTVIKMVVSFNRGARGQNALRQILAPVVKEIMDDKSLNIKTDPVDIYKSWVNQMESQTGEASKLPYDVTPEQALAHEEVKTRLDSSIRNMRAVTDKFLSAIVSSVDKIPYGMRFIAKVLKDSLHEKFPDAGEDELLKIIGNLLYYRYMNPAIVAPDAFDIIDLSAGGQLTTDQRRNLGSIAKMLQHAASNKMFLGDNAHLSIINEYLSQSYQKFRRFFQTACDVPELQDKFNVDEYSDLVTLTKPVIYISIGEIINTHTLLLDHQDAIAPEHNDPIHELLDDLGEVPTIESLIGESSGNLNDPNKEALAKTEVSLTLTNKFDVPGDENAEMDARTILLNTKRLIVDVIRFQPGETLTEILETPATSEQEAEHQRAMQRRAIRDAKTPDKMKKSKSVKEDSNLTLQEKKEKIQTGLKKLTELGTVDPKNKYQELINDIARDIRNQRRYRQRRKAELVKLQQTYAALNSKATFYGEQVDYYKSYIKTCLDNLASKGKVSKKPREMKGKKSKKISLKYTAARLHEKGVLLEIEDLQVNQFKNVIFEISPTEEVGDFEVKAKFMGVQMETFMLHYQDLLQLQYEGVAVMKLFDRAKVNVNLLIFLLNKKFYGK

[4] = target: T3, IQGAP1 GRD1-CT (aa 863-1657); assay: fluorescence polarisation; IQGAP1 variant titrated to mGDP-bound (inactive) RHO protein (1 μM), same conditions as with mGppNHp; 30 mM Tris/HCl pH 7.5, 150 mM NaCl, 5 mM MgCl2, 3 mM DTT, 25 °C

B1: CDC42 (aa 1-178) (domain or fragment)
chain: not shown
notes: human CDC42, C-terminally truncated, aa 1-178; Loaded non-covalently with mGppNHp, tGppNHp, mGDP or non-fluorescent GppNHp; the nucleotide is named in the format of each assay; also called CDC42^WT; CDC42-mGppNHp
Q: Which Kd [1] does the source give for B1 here?
A: The Kd was 16.3 µM.

Q: What about the Kd [2] of the same binder?
A: Its Kd is 4.6 µM.

Q: What about the Kd [3] of the same binder?
A: The Kd was 3.4 µM.

Q: And the Kd [4]?
A: Its Kd is 95.1 µM.

Reference: publication PMC5159498, “IQGAP1 Interaction with RHO Family Proteins Revisited” (The Journal of Biological Chemistry, 2016)
